T1: K559 PDZ-GST fusion protein (Homo sapiens (Human), UniProt Q9Y6V0 4489-4593)
T1 construct: Order of GST and PDZ part and limits not seen in the excerpts
T1 sequence: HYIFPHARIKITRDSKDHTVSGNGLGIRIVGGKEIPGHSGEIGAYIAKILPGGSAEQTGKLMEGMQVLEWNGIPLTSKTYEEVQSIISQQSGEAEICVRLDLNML

T2: GST-cytohesin binding protein PDZ domain fusion protein (Homo sapiens (Human), UniProt O60759 74-165)
T2 construct: also called CBP; not shown: glutathione S-transferase encoded by vector pGEX-3X (Pharmacia)
T2 sequence: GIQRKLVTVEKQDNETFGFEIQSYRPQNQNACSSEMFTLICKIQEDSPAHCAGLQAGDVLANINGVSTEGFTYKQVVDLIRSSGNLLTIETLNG

T3: X11β PDZ-GST fusion protein (Rattus norvegicus (Rat), UniProt O35431 560-745)
T3 construct: Order of GST and PDZ part and limits not seen in the excerpts
T3 chain: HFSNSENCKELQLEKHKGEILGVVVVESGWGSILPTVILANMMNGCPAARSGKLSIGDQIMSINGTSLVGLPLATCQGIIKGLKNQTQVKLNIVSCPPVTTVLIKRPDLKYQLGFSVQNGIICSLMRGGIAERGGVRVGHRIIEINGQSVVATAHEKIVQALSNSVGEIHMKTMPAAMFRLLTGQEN

T4: GST-LIM protein PDZ domain fusion protein (Human, UniProt Q96HC4 2-85)
T4 construct: also called Human LIM protein; not shown: glutathione S-transferase encoded by vector pGEX-3X (Pharmacia)
T4 sequence: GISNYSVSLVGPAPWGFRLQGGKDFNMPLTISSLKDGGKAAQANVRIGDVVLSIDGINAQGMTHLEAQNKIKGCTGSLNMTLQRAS

T5: GST-PTN-4 PDZ domain fusion protein (Homo sapiens (Human), UniProt P29074 517-605)
T5 construct: also called protein-tyrosine phosphatase meg1; not shown: glutathione S-transferase encoded by vector pGEX-3X (Pharmacia)
T5 sequence: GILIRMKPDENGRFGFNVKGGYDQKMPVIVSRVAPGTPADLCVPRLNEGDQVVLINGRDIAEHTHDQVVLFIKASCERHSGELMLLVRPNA

T6: KIAA0807 (PDZ domain)-GST fusion protein (human, UniProt Q6P0Q8 1104-1192)
T6 construct: also called K807; KIAA807; not shown: glutathione S-transferase encoded by vector pGEX-3X (Pharmacia)
T6 sequence: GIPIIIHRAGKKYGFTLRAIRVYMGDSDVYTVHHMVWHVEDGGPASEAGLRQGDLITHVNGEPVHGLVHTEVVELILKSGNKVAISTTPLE

T7: GST-PDZK1 fusion protein (PDZ domains 2-4) (Homo sapiens, UniProt Q5T2W1 134-457)
T7 construct: not shown: glutathione S-transferase encoded by vector pGEX-3X (Pharmacia)
T7 sequence: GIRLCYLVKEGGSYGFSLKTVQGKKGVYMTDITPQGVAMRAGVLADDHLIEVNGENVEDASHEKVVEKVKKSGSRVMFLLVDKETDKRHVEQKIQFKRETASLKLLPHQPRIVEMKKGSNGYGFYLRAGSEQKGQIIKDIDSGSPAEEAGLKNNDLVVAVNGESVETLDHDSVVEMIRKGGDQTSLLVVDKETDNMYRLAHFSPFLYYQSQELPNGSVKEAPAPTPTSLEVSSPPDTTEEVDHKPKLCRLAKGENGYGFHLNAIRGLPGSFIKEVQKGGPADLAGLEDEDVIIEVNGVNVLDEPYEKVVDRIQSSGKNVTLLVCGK

T8: GST-CASK PDZ domain fusion protein (Homo sapiens, UniProt O14936 486-575)
T8 construct: also called Homo sapiens CASK protein
T8 sequence: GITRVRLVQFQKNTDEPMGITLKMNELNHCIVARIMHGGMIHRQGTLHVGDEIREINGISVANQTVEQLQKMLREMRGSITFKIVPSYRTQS

T9: GST-RGS12 PDZ domain fusion protein (human, UniProt O14924 17-85)
T9 construct: also called human regulator of G-protein signalling 12; not shown: glutathione S-transferase encoded by vector pGEX-3X (Pharmacia)
T9 sequence: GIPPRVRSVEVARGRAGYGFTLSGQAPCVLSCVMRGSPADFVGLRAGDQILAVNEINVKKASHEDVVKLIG

T10: MINT3 PDZ-GST fusion protein
T10 construct: Order of GST and PDZ part and limits not seen in the excerpts
T10 chain: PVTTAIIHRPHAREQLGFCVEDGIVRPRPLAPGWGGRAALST

T11: GST-mouse syntenin fusion protein (Mus musculus, UniProt O08992 108-286)
T11 construct: also called Mus musculus Syntenin; not shown: glutathione S-transferase encoded by vector pGEX-3X (Pharmacia)
T11 chain: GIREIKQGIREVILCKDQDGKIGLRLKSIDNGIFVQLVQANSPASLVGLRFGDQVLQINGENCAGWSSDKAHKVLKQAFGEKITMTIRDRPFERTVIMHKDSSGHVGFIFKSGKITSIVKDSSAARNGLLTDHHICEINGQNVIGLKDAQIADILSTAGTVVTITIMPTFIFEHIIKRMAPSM

T12: GST-MPP1 PDZ domain fusion protein (Homo sapiens (Human), UniProt Q00013 67-152)
T12 construct: also called p55; 55 Kd erythrocyte membrane protein; not shown: glutathione S-transferase encoded by vector pGEX-3X (Pharmacia)
T12 sequence: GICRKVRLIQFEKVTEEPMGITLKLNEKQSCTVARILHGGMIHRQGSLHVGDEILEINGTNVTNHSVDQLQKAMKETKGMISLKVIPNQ

T13: GST-TAX-IP40 PDZ domain fusion protein (human, UniProt Q6B4M5 150-252 (rat entry))
T13 construct: also called TAX40; not shown: glutathione S-transferase encoded by vector pGEX-3X (Pharmacia)
T13 sequence: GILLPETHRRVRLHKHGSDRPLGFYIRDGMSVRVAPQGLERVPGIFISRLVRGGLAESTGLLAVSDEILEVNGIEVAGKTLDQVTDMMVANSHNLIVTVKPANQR

Ends that are not written are not given here. * marks the point of attachment. Biotin = O=C1N[C@H]2[C@H](CS[C@H]2CCCCC(=O)*)N1

The target of one experiment is T14, NSP PDZ-GST fusion protein (Homo sapiens (Human), UniProt Q92743 370-466).
T14 construct: The label NSP is not explained in the excerpts
T14 sequence (Q92743 other isoform, or with tags, fused parts or gaps limits assumed): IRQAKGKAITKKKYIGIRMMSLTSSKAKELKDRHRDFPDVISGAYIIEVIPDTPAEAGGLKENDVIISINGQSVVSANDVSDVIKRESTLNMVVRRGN
The experiment in a line: A/G assays.
Biotin-TSGTGHNQTRALRASESGI (also called CD97 (CD55L)) [CD97 C-terminal peptide AA14L, biotinylated]: the binding result is on record as “no binding”.
For Biotin-ISGTPTSTMVHGMTSSSSVV [Clasp-2 C-terminal peptide AA2L, biotinylated], the binding result was “no binding”.
As to Biotin-SPQPDSTDNDDYDDISAA [CD6 C-terminal peptide AA6L, biotinylated], the binding result is recorded as “no binding”.

The next experiment addresses T1, K559 PDZ-GST fusion protein. The experiment can be described thus: A/G assays.
Take Biotin-TSGTGHNQTRALRASESGI (also called CD97 (CD55L)) [CD97 C-terminal peptide AA14L, biotinylated]: the binding result is reported as “no binding”.
As to Biotin-ISGTPTSTMVHGMTSSSSVV [Clasp-2 C-terminal peptide AA2L, biotinylated], the binding result was “no binding”.
For Biotin-SPQPDSTDNDDYDDISAA [CD6 C-terminal peptide AA6L, biotinylated], the binding result is reported as “no binding”.

In the next experiment the target is T2, GST-cytohesin binding protein PDZ …. The experiment can be described thus: A/G assays.
Biotin-TSGTGHNQTRALRASESGI (also called CD97 (CD55L)) [CD97 C-terminal peptide AA14L, biotinylated]: the binding result is given as “no binding”.
For the molecule Biotin-ISGTPTSTMVHGMTSSSSVV [Clasp-2 C-terminal peptide AA2L, biotinylated], the binding result was “no binding”.
Same read-out and setting: as for Biotin-SPQPDSTDNDDYDDISAA [CD6 C-terminal peptide AA6L, biotinylated], the entry is “no binding”.

A further experiment has as its target T3, X11β PDZ-GST fusion protein. The experiment in a line: A/G assays.
With Biotin-TSGTGHNQTRALRASESGI (also called CD97 (CD55L)) [CD97 C-terminal peptide AA14L, biotinylated], the binding result was “no binding”.
For Biotin-ISGTPTSTMVHGMTSSSSVV [Clasp-2 C-terminal peptide AA2L, biotinylated], the binding result was “no binding”.
Regarding Biotin-SPQPDSTDNDDYDDISAA [CD6 C-terminal peptide AA6L, biotinylated], the binding result is given as “no binding”.

The target of the next experiment is T4, GST-LIM protein PDZ domain fusion …. The experiment in a line: A/G assays.
On to Biotin-TSGTGHNQTRALRASESGI (also called CD97 (CD55L)) [CD97 C-terminal peptide AA14L, biotinylated], for which the binding result is “no binding”.
As to Biotin-ISGTPTSTMVHGMTSSSSVV [Clasp-2 C-terminal peptide AA2L, biotinylated], the binding result was “no binding”.
The same measure, in the same setting: as for Biotin-SPQPDSTDNDDYDDISAA [CD6 C-terminal peptide AA6L, biotinylated], the entry is “no binding”.

A further experiment deals with T5, GST-PTN-4 PDZ domain fusion protein. The experiment can be described thus: A/G assays.
On to Biotin-TSGTGHNQTRALRASESGI (also called CD97 (CD55L)) [CD97 C-terminal peptide AA14L, biotinylated], for which the binding result was “no binding”.
Turning to Biotin-ISGTPTSTMVHGMTSSSSVV [Clasp-2 C-terminal peptide AA2L, biotinylated], the binding result is listed as “no binding”.
The same measure, in the same setting: the entry for Biotin-SPQPDSTDNDDYDDISAA [CD6 C-terminal peptide AA6L, biotinylated] is “no binding”.

Another experiment deals with T6, KIAA0807 (PDZ domain)-GST fusion protein. The experiment in a line: A/G assays.
As for Biotin-TSGTGHNQTRALRASESGI (also called CD97 (CD55L)) [CD97 C-terminal peptide AA14L, biotinylated], the binding result was “no binding”.
On to Biotin-ISGTPTSTMVHGMTSSSSVV [Clasp-2 C-terminal peptide AA2L, biotinylated], for which the binding result is given as “no binding”.
Still for that read-out and setting: as for Biotin-SPQPDSTDNDDYDDISAA [CD6 C-terminal peptide AA6L, biotinylated], the entry is “no binding”.

Another experiment deals with T7, GST-PDZK1 fusion protein (PDZ domains …). The experiment in a line: A/G assays.
Biotin-TSGTGHNQTRALRASESGI (also called CD97 (CD55L)) [CD97 C-terminal peptide AA14L, biotinylated]: the binding result is “no binding”.
For Biotin-ISGTPTSTMVHGMTSSSSVV [Clasp-2 C-terminal peptide AA2L, biotinylated], the binding result is listed as “no binding”.
Still for that read-out and setting: the entry for Biotin-SPQPDSTDNDDYDDISAA [CD6 C-terminal peptide AA6L, biotinylated] is “no binding”.

A further experiment has as its target T8, GST-CASK PDZ domain fusion protein. The experiment in a line: A/G assays.
Biotin-TSGTGHNQTRALRASESGI (also called CD97 (CD55L)) [CD97 C-terminal peptide AA14L, biotinylated]: the binding result is given as “no binding”.
Same read-out and setting: as for Biotin-ISGTPTSTMVHGMTSSSSVV [Clasp-2 C-terminal peptide AA2L, biotinylated], the entry is “no binding”; as for Biotin-SPQPDSTDNDDYDDISAA [CD6 C-terminal peptide AA6L, biotinylated], “no binding”.

The next experiment addresses T9, GST-RGS12 PDZ domain fusion protein. The experiment in a line: A/G assays.
With Biotin-TSGTGHNQTRALRASESGI (also called CD97 (CD55L)) [CD97 C-terminal peptide AA14L, biotinylated], the binding result is “no binding”.
On the same count and under the same terms, as for Biotin-ISGTPTSTMVHGMTSSSSVV [Clasp-2 C-terminal peptide AA2L, biotinylated], the entry is “no binding”; as for Biotin-SPQPDSTDNDDYDDISAA [CD6 C-terminal peptide AA6L, biotinylated], “no binding”.

A further experiment addresses T10, MINT3 PDZ-GST fusion protein. The experiment can be described thus: A/G assays.
Take Biotin-TSGTGHNQTRALRASESGI (also called CD97 (CD55L)) [CD97 C-terminal peptide AA14L, biotinylated]: the binding result was “no binding”.
On the same count and under the same terms, as for Biotin-ISGTPTSTMVHGMTSSSSVV [Clasp-2 C-terminal peptide AA2L, biotinylated], the entry is “no binding”.
Still for that read-out and setting: the entry for Biotin-SPQPDSTDNDDYDDISAA [CD6 C-terminal peptide AA6L, biotinylated] is “no binding”.

For a further experiment, the target named is T15, NOS1 PDZ-GST fusion protein (Homo sapiens (Human), UniProt P29475 11-100).
T15 construct: Order of GST and PDZ part and limits not seen in the excerpts
T15 sequence (P29475 11-100 limits assumed): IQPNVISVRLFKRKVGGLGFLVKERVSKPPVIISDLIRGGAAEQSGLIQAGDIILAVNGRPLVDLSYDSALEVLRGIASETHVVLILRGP
The experiment in a line: A/G assays.
Consider Biotin-TSGTGHNQTRALRASESGI (also called CD97 (CD55L)) [CD97 C-terminal peptide AA14L, biotinylated], for which the binding result is reported as “no binding”.
On the same count and under the same terms, as for Biotin-ISGTPTSTMVHGMTSSSSVV [Clasp-2 C-terminal peptide AA2L, biotinylated], the entry is “no binding”; as for Biotin-SPQPDSTDNDDYDDISAA [CD6 C-terminal peptide AA6L, biotinylated], “no binding”.

The target of another experiment is T11, GST-mouse syntenin fusion protein. The experiment in a line: A/G assays.
For the molecule Biotin-TSGTGHNQTRALRASESGI (also called CD97 (CD55L)) [CD97 C-terminal peptide AA14L, biotinylated], the binding result is recorded as “no binding”.
As to Biotin-ISGTPTSTMVHGMTSSSSVV [Clasp-2 C-terminal peptide AA2L, biotinylated], the binding result is “no binding”.
On the same count and under the same terms, the entry for Biotin-SPQPDSTDNDDYDDISAA [CD6 C-terminal peptide AA6L, biotinylated] is “no binding”.

The target in a further experiment is T12, GST-MPP1 PDZ domain fusion protein. The experiment in a line: A/G assays.
Consider Biotin-TSGTGHNQTRALRASESGI (also called CD97 (CD55L)) [CD97 C-terminal peptide AA14L, biotinylated], for which the binding result is given as “no binding”.
Take Biotin-ISGTPTSTMVHGMTSSSSVV [Clasp-2 C-terminal peptide AA2L, biotinylated]: the binding result is listed as “no binding”.
Still for that read-out and setting: the entry for Biotin-SPQPDSTDNDDYDDISAA [CD6 C-terminal peptide AA6L, biotinylated] is “no binding”.

Another experiment deals with T13, GST-TAX-IP40 PDZ domain fusion protein. The experiment in a line: A/G assays.
Biotin-TSGTGHNQTRALRASESGI (also called CD97 (CD55L)) [CD97 C-terminal peptide AA14L, biotinylated]: the binding result is reported as “no binding”.
Consider Biotin-ISGTPTSTMVHGMTSSSSVV [Clasp-2 C-terminal peptide AA2L, biotinylated], for which the binding result is “no binding”.
As for Biotin-SPQPDSTDNDDYDDISAA [CD6 C-terminal peptide AA6L, biotinylated], the binding result is listed as “no binding”.
